{
  "source": "paper PMC9513805",
  "about": "“A natural transdifferentiation event involving mitosis is empowered by integrating signaling inputs with conserved plasticity factors”",
  "key": {"[1]": {"target": "T1, HMG-POP-1 (Caenorhabditis elegans, UniProt Q10666 181-281)", "T1 sequence": "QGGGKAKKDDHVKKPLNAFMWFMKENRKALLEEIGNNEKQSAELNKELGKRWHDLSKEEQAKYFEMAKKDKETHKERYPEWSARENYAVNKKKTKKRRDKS", "test": "EMSA; 20 mM Tris-HCl pH 8.0, 100 mM NaCl, 100 ug/mL BSA, 1 mM EDTA, 1 mM DTT, 0.1% NP-40; 20 min on ice (supershift 30 min at room temperature), 200 ng Cy5 probe; 6%", "conditions": "protein: recombinant; tags: N-terminal 6xHis (pSJ769); label: Cy5 on forward strand; blunt"}, "[2]": {"target": "SOX-2 (Caenorhabditis elegans, UniProt Q21305 1-283)", "sequence (Q21305 whole entry)": "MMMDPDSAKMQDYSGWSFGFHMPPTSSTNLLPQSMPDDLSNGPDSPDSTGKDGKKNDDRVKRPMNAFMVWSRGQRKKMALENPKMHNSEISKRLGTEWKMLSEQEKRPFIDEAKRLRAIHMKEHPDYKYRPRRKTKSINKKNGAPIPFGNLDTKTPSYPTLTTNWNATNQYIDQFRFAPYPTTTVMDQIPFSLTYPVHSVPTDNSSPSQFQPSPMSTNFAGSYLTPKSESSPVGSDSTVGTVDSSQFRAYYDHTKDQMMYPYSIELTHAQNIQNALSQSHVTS", "test": "EMSA; 20 mM Tris-HCl pH 8.0, 100 mM NaCl, 100 ug/mL BSA, 1 mM EDTA, 1 mM DTT, 0.1% NP-40; 20 min on ice (supershift 30 min at room temperature), 200 ng Cy5 probe; 6%", "conditions": "protein: recombinant; tags: N-terminal 6xHis, C-terminal HA (pSJ6094); label: Cy5 on forward strand; blunt"}},
  "data": [
    {"binder": "lim-6 intron 4 probe 1 (dsDNA) DNA 1: TACGATTTGCAAACAACAAACATTCCAGACAGAT DNA 2: ATCTGTCTGGAATGTTTGTTGTTTGCAAATCGTA", "values": [
      {"measurement": "binding result", "setting": "[1]", "result": "binds"},
      {"measurement": "binding result", "setting": "[2]", "result": "binds"}
    ]},
    {"binder": "lim-6 intron 4 probe 2 (dsDNA) DNA 1: CTGCTACCGTAGTGCTTTGTTGATTTAACACACA DNA 2: TGTGTGTTAAATCAACAAAGCACTACGGTAGCAG", "values": [
      {"measurement": "binding result", "setting": "[1]", "result": "binds"},
      {"measurement": "binding result", "setting": "[2]", "result": "binds"}
    ]}
  ]
}
